Experimental data from patent US20220024979A1 (NANYANG TECHNOLOGICAL UNIVERSITY, published 2022).

Biological target: the molecule itself
Experiment: solution 2D 1H-1H NOESY NMR, 20 mM peptide
Method: NMR: All solution state NMR experiments were carried out on a Bruker 700 MHz spectrometer equipped with a cryoprobe. NMR data were processed with TOPSPIN (Bruker), then analysed using Sparky (W. Lee et al. Bioinfo. 2015, 31, 1325) programs. 0.5 mM or 20 mM GV8 peptides were dissolved in water, pH 6.8 with 10% D₂O for deuterium lock and DSS for signal reference. Two dimensional (2D)¹H-¹H TOCSY and NOESY spectra were acquired with 80 ms and 200 ms mixing times, respectively. In order to monitor hydrogel formation, 1D ¹H spectrum and a series of 2D ¹H-¹H NOESY spectra were recorded every four hours for 20 hours using the 20 mM peptide solution. For H/D exchange experiments, 0.5 mM and 20 mM peptide samples were dissolved in 100% D₂O and 2D ¹H-¹H TOCSY spectra were recorded at 30 min intervals. The extrinsic exchange rates were obtained by fitting the peak intensity vs. time to a single-exponential decay equation. The protection factor were calculated as the ratio of intrinsic exchange rates (calculated from SPHERE (Bai et al. Proteins. 1993, 17, 75)) to the extrinsic exchange rates. […] Amide temperature coefficients were also determined by recording 1D ¹H spectra of 0.5 mM and 20 mM GV8 peptide at 298 K, 303 K, 308 K and 313 K. Amide proton chemical shift deviations were fitted linearly against temperature and the temperature coefficients were calculated as σδHN/ΔT (ppb K⁻¹).

B1: Ac-GLYGGYGV-NH2 (GV8) peptide (peptide)
peptide: Ac-GLYGGYGV-NH2
notes: Synthetic 8-residue peptide, a repeat derived from suckerin-19; It is entered only for its self-association (dimer or oligomer in solution at 20 mM, antiparallel beta-sheets in the hydrogel); For the ssNMR experiments the peptide was uniformly 13C-15N labelled
binding result: binds
